{"source": "paper PMC12610585", "substrate": "O=[N+]([O-])c1ccc(O[C@H]2O[C@H](CO)[C@H](O)[C@H](O)[C@H]2O)cc1", "assay": "purified protein", "conditions": "optimized conditions: 37 °C, pH 6.0, 10 min, 0-8 mM substrate", "data": [{"protein": "Amuc_0517 (Akkermansia muciniphila ATCC BAA-835) (protein) QPRTTAILPVPGEKACRLPLPPYQAFCWFSADRGRWPGDGNRVLPWFGRTAPGNLLDSKPNPSTAKPGDHAMFALFHLKDGNFMAVLPVAAPDSLAWLKLERDGTFLVEAGSLGTSPAKPQAVLAVTATDKDIYRACSAVWDKALSLPFIKGRTLPREKKIYPEPFKYLGWCSWEQYKKNISSKLLEETARKLEASPVPVRWMLVDDGFQTQERLQLVSFQPRQDQFPRGWQPLMKHKSPKLKWMGLWHCYYGLWNGIHPRHRLDDETARGLVRTAKGKILPGDGSGGAGAFYTPFLQSVKDTGFDFVKIDVQAEYLKHADGLDNPVRHNTKCSEALEQACLKTGLSLVNCMAQGTVNIQNTRYSAVTRCSIDYKLGDEAMAKSHILQSYANTLWLGQTVWPDHDMFHSTDPACARLMAVSKAVSGGPVYLSDPADKLNPENIMPLVWSDGLLLRPLAPAVPLPDSVFPDALNENRLYRVIAPLPGQSAAVVVYNLKHPSPAEPVRGKISLEDYKNAAALLNGNAAEAYASLPAEGIAAYSAEGGRALTPAQPDLDVELTGFKDRLFIMAPIVQGWAVIGRRDKFLSPCALVSAPGYRENGLRFRVKESGPVVIWRGKGPVKAGNTPVRNLGNGFYELQFPVSDHPLDITVTAE", "values": [{"measurement": "Km", "value": 8.2, "unit": "mM"}]}]}
